Key:
[1] = biological target: Soluble RhoA (residues 1–181) (UniProt P61586); test: SPR; Biacore 3000; His6-RhoA loaded with GDPβS (RhoA-GDP) held on a nitrilotriacetic acid chip; untagged onco-Lbc or DHαPH injected (0–5 μM); PBS pH 7.4, 1 mM MgCl2; reference lane His6-ubiquitin; constant of onco-Lbc called apparent (two sites)
[2] = biological target: Soluble RhoA (residues 1–181) (UniProt P61586); test: SPR; Biacore 3000; His6-RhoA loaded with GTPγS (RhoA-GTP) held on a nitrilotriacetic acid chip; untagged onco-Lbc or DHαPH injected (0–5 μM); PBS pH 7.4, 1 mM MgCl2; reference lane His6-ubiquitin; constant of onco-Lbc called apparent (two sites)
[3] = biological target: Soluble RhoA (residues 1–181) (UniProt P61586)
[4] = biological target: Soluble RhoA (residues 1–181) (UniProt P61586); remark: listed apart in the source

UniProt P61586, sequence (P61586 1-181): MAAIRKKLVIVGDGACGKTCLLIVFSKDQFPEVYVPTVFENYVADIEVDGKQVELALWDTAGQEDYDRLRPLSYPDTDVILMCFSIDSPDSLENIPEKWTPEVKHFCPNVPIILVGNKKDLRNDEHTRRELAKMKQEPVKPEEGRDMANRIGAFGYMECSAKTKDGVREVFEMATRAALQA

| Molecule | Kd [1] | Kd [2] | relative activity (specific exchange activity, DH-PH = 1) (fold of DH-PH) [3] | specific exchange activity (Mant-GDP on RhoA replaced by GMP-PNP) [3] | GEF activity: exchange of GDP to Mant-GTP on RhoA, wild-type onco-Lbc = 100 (% of wild-type onco-Lbc) [4] |
| --- | --- | --- | --- | --- | --- |
| AKAP-Lbc construct encompassing residues 2164–2346 (DHαPH) (from UniProt Q12802 2164-2346) (domain or fragment) | > 50000 nM | 2930 nM | – | – | – |
| onco-Lbc (AKAP13 residues 1922–2346) (domain or fragment) | 2880 nM | 2210 nM | – | – | – |
| onco-Lbc E2001A (domain or fragment) | – | – | 0.27 | 1070 s⁻¹ M⁻¹ | 8.4 |
| onco-Lbc E2319A (domain or fragment) | – | – | 1.86 | 7300 s⁻¹ M⁻¹ | 148 |
| onco-Lbc F2299A (domain or fragment) | – | – | 0.11 | 440 s⁻¹ M⁻¹ | 23.3 |
| onco-Lbc R2136G (domain or fragment) | – | – | 0.06 | 230 s⁻¹ M⁻¹ | 7.4 |
| onco-Lbc R2289A (domain or fragment) | – | – | 0.17 | 680 s⁻¹ M⁻¹ | 10.9 |
| isolated DH domain of onco-Lbc (AKAP13 residues 1992–2210) (domain or fragment) VVKRQEVIYELMQTEFHHVRTLKIMSGVYSQGMMADLLFEQQMVEKLFPCLDELISIHSQFFQRILERKKESLVDKSEKNFLIKRIGDVLVNQFSGENAERLKKTYGKFCGQHNQSVNYFKDLYAKDKRFQAFVKKKMSSSVVRRLGIPECILLVTQRITKYPVLFQRILQCTKDNEVEQEDLAQSLSLVKDVIGAVDSKVASYEKKVRLNEIYTKTDS | – | – | 3.7 | 14300 s⁻¹ M⁻¹ | 174 |
